From patent publication CN115819587A (BEIJING DONGFANG BIOTECH CO LTD; BEIJING JINGYI TAIXIANG …, dated 2023)

Experiments:
huFc-NKG2C/CD94 = target: T1, huFc-NKG2C/CD94 (UniProt P26717 94-231; Q13241 32-179, limits assumed); assay: ELISA, dilution series of MA-1 on huFc-NKG2C/CD94, anti-mouse Ig-HRP
T1 construct: Construct known only by its name; not shown: human Fc (huFc)

huFc-NKG2E/CD94 = target: T2, huFc-NKG2E/CD94 (UniProt Q07444 94-240; Q13241 32-179, limits assumed); assay: ELISA, dilution series of MA-1 on huFc-NKG2E/CD94, anti-mouse Ig-HRP
T2 construct: Construct known only by its name; not shown: human Fc (huFc)

huFc-NKG2A/CD94 = target: T3, huFc-NKG2A/CD94 (UniProt P26715 94-233; Q13241 32-179, limits assumed); assay: phage supernatant ELISA on huFc-NKG2A/CD94 against huFc-NKG2C/CD94 and huFc-NKG2E/CD94; criterion of selection met by MA-1
T3 construct: Construct known only by its name; the order of the pieces follows the name huFc-NKG2A; not shown: human Fc (huFc)
T3 sequence (P26715 94-233 limits assumed, chain 1 of 2): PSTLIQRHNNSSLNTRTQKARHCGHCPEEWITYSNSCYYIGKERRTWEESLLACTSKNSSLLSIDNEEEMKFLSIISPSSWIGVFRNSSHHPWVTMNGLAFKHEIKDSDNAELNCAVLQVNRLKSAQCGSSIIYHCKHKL
T3 sequence (Q13241 32-179 limits assumed, chain 2 of 2): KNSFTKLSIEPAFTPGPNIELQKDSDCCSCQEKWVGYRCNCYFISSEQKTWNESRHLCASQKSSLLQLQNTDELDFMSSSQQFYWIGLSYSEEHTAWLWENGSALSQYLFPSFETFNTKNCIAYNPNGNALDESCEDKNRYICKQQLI

T2 sequence (Q07444 94-240 limits assumed, chain 1 of 2): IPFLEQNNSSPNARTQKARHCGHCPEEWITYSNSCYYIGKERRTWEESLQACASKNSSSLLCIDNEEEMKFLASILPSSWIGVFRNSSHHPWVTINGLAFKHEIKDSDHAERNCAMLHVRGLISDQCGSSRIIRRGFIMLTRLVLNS
T2 sequence (Q13241 32-179 limits assumed, chain 2 of 2): as the sequence (Q13241 32-179 limits assumed, chain 2 of 2) above
T1 sequence (P26717 94-231 limits assumed, chain 1 of 2): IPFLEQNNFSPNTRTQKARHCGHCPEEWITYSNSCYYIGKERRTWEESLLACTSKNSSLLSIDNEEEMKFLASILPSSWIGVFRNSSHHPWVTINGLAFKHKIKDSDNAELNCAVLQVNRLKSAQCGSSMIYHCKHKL
T1 sequence (Q13241 32-179 limits assumed, chain 2 of 2): as the sequence (Q13241 32-179 limits assumed, chain 2 of 2) above

B1: MA-1 鼠源全抗分子 (mouse IgG2a / mouse Ck full antibody) (antibody, V domains shown)
VH: EVKLEESGGGLVKPGGSLKLSCAASGFAFSDYDMSWVRQTPEKRLEWVATISSGGSYTYYPDSVKGRFTISRDNARNTLYLQMSSLRSEDTALYYCTSPRQVGLRKAFDYWGQGTTLTVSS
VL: DIVVTQSPALMSASPGEKVTMTCSASSSVSYMYWYQQKPRSSPKSWIYLTSNLASGVPARFSGSGSGTSYSLTISSMEAEDAATYYCQQWSSNPFTFGSGTKLEIKR
notes: plain joining would double 'AD' at the junction; also called MA-1鼠源抗体; 抗NKG2A单克隆抗体MA-1
B1: no binding (huFc-NKG2C/CD94); no binding (huFc-NKG2E/CD94).

B2: MA-1 噬菌体单克隆抗体 (phage-displayed single-chain antibody MA-1) (scFv)
chain: EVKLEESGGGLVKPGGSLKLSCAASGFAFSDYDMSWVRQTPEKRLEWVATISSGGSYTYYPDSVKGRFTISRDNARNTLYLQMSSLRSEDTALYYCTSPRQVGLRKAFDYWGQGTTLTVSSDIVVTQSPALMSASPGEKVTMTCSASSSVSYMYWYQQKPRSSPKSWIYLTSNLASGVPARFSGSGSGTSYSLTISSMEAEDAATYYCQQWSSNPFTFGSGTKLEIKRAD
In the case of B2, the “OD450nm ratio, NKG2A against NKG2C/E” value (huFc-NKG2A/CD94) is reported as at least 3 fold.
